From US20190309079A1 (Regeneron, published 2019)
Values belong to the binder of their own block, whether it stands above or below them.

Legend:
[1] = biological target: T1, human LEPR Ig (D3)-MMH (human, UniProt P48357 340-427, limits assumed); assay: Luminex, myc-captured protein on beads
T1 construct: domain: Ig (D3)
T1 sequence (looked up): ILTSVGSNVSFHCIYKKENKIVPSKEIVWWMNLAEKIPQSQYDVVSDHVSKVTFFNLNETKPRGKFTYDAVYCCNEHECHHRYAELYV
Method: (§1) Aliquots of microspheres with immobilized anti-myc monoclonal antibodies, prepared as described above, were added individually to 1 mL of the each of these protein supernatants. The microspheres were gently mixed, incubated for two hours at 25° C., washed twice with 1 mL of DBPS, centrifuged to remove the supernatant and finally resuspended in 1 mL of DPBS buffer. […] of anti-myc IgG coupled microspheres from individual reactions with full length human LEPR and with each of the human LEPR domain proteins were withdrawn and mixed together in 3.6 mL of PBS+20 mg/mL BSA+0.05% sodium azide (blocking buffer).
(§2) From this mixed pool, 75 μL of microspheres were plated per well on a 96 well filter plate (Millipore, Cat. No: MSBVN1250) and mixed with 25 μL of individual anti-human LEPR monoclonal antibodies (0.5 or 5 μg/mL), incubated for two hours at 25° C. and then washed twice with 200 μL of DPBS with 0.05% Tween 20 (washing buffer). […] After 30 minutes, the samples were washed twice with 200 µL of washing buffer and resuspended in 150 μL of wash buffer. The Median Fluorescence intensity (MFI) of the microspheres was measured in a Luminex Analyzer.

[2] = biological target: T2, human LEPR CRH1-Ig (D2,D3)-MMH (human, UniProt P48357 230-427, limits assumed); assay: Luminex, myc-captured protein on beads
T2 construct: domain: CRH1-Ig (D2,D3)
T2 sequence (looked up): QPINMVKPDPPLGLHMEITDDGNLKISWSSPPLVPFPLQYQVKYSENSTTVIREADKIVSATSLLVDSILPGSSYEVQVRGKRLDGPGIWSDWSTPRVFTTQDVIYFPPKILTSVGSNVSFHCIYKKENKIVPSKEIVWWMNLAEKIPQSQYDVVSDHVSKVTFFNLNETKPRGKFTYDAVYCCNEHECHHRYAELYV
Method: as §1, §2

- Luminex MFI [1]: 27 MFI
B1: H4H18482P2 (antibody, human IgG4, V domains shown)
VH: QVQLQESGPGLVKPSQTLSLTCTVSGGSISSGNYYWNWIRQQPGEGLEWIAYIYHNGVTNFNPSLKSRLTISVDTSKTQFSLKLRSVTAADTAVYYCARSGSWFENWYFDLWGRGTLVTVSS
VL: not shown
notes: human IgG4 Fc

- Luminex MFI [2]: 62 MFI
- Luminex MFI [1]: 22 MFI
B2: H4H18487P2 (antibody, V domains shown)
VH: QVQLQESGPGLVKPSETLSLTCTVSGGSISNSYWSWIRQPPGKGLEWIGYVYSRGNTKYNPSLTSRVTMSFDTSKNQFSLKLRSVTAADTAVYYCARSSSWYEDWYFDLWGRGTLVTVSS
VL: not shown

- Luminex MFI [2]: 8680 MFI
- Luminex MFI [1]: 19 MFI
B3: H4H18492P2 (antibody, V domains shown)
VH: QVQLQQWGAGLFKPSETLSLTCDVYGGSFRGYYWSWIRQPPGKGLEWIGEISYSGFTNYNPSLKSRVIISIDTSKNQFSLKMSSVTAADTAVYYCARVTYGYGTFDYWGQGTLVTVSS
VL: not shown
